{"source": "patent US20040259781A1", "about": "(Novartis, published 2004)", "key": {"[1]": {"target": "Fibronectin (purified from horse serum) (horse) (UniProt Q28377)", "sequence (Q28377 32-2477)": "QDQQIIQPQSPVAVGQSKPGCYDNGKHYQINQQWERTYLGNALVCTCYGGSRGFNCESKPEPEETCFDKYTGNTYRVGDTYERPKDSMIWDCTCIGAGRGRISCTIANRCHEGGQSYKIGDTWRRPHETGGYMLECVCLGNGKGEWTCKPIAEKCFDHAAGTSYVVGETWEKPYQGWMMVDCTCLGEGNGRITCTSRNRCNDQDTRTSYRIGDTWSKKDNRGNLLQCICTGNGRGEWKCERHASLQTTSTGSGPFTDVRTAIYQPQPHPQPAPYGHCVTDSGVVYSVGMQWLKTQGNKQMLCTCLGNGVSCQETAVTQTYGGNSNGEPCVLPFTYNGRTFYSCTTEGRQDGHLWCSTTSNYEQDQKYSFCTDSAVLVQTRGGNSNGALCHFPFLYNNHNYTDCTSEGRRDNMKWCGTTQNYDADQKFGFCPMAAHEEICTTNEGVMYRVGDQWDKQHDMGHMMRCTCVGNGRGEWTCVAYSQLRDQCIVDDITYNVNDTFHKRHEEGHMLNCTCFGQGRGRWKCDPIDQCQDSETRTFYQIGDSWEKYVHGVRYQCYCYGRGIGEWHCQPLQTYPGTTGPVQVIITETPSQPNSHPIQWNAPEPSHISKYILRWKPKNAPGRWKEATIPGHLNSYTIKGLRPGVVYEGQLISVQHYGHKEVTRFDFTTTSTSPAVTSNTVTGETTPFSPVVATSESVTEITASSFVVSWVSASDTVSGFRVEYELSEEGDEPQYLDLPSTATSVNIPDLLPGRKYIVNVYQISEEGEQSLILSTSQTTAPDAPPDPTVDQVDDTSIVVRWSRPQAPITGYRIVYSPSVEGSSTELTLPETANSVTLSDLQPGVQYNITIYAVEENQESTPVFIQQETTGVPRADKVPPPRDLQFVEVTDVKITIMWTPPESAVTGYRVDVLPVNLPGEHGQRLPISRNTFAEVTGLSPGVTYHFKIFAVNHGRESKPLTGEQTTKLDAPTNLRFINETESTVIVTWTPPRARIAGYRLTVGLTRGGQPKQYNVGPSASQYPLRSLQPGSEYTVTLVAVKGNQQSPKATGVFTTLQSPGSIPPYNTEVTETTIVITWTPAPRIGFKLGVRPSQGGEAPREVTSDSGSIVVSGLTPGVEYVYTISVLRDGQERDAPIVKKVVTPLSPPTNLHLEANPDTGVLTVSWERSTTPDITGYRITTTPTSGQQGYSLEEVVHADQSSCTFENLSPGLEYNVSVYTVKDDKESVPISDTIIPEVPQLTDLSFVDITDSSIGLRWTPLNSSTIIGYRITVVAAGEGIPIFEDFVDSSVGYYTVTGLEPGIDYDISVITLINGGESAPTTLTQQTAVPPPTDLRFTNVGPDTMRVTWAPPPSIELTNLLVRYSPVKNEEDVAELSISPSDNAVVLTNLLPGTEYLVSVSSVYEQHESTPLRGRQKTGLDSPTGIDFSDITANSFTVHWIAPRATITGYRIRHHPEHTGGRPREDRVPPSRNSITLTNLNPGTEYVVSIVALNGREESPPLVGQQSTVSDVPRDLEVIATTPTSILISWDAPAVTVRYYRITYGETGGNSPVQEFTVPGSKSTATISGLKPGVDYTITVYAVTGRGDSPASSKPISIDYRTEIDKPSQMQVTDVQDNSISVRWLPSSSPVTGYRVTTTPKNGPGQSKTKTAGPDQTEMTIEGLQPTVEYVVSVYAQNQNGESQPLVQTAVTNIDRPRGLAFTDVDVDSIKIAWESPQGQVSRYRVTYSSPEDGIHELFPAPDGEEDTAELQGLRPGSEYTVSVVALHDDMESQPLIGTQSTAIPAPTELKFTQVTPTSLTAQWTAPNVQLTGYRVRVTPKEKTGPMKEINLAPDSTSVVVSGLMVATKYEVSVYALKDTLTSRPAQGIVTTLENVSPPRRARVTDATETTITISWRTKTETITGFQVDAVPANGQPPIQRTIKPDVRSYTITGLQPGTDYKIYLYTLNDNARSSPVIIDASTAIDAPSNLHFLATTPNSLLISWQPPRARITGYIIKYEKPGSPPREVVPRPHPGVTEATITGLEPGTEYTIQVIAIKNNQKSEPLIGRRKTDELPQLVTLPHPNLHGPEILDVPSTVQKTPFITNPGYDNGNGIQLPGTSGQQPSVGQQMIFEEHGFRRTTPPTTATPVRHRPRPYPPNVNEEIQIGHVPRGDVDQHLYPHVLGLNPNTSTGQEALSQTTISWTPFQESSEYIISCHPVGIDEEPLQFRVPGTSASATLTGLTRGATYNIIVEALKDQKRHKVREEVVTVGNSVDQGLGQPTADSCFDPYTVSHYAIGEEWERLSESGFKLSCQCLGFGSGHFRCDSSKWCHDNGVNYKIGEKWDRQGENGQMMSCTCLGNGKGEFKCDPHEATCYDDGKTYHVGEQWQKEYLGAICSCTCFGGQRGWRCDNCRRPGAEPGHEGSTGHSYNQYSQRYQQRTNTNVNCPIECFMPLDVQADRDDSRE", "test": "cell-based or functional assay"}, "[2]": {"target": "T1, Syndecan-1 overexpressed on T98G glioblastoma cells (mouse, UniProt P18828 23-311)", "T1 construct": "whole, on cells; also called T98G:S1", "T1 sequence (looked up)": "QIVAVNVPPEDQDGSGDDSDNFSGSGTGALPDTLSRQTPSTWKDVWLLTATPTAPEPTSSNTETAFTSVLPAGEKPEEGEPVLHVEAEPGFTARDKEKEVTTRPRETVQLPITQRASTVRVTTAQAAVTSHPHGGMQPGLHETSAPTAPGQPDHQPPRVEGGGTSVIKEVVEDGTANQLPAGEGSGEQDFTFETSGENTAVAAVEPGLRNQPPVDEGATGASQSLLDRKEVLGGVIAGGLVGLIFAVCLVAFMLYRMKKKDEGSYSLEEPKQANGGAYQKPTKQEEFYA", "test": "GST pull-down of cell surface-bound FNIII13 and western blot, immunofluorescence"}, "[3]": {"conditions": "scale: relative increase in cpm over cells plated on fibronectin"}}}
{"molecule": "Syndecan-4 overexpressed on T98G glioblastoma cells (receptor)", "values": [{"measurement": "attachment of syndecan-4 overexpressing T98G:S4 cells on fibronectin/tenascin-C substratum", "setting": "[1]", "result": 64.7, "unit": "%"}]}
{"molecule": "Full length chicken tenascin-C TN260 (from UniProt P10039 34-1808)", "values": [{"measurement": "CHO-B2 cells (ITS) attached on FN/TN substratum, 20 h (% of cells attached on fibronectin)", "setting": "[1]", "result": 31.5}, {"measurement": "CHO-B2α27 cells (ITS) attached on FN/TN substratum, 20 h (% of cells attached on fibronectin)", "setting": "[1]", "result": 45.1}, {"measurement": "CHO-K1 cells (ITS) attached on FN/TN substratum, 20 h (% of cells attached on fibronectin)", "setting": "[1]", "result": 37.9}, {"measurement": "MDA MB 435 cells (insulin) attached on FN/TN substratum, 20 h (% of cells attached on fibronectin)", "setting": "[1]", "result": 62.2}, {"measurement": "MDA MB 435 cells attached on FN/TN substratum, 1 h (% of cells attached on fibronectin)", "setting": "[1]", "result": 24.5}, {"measurement": "MDA-MB435 cell number on fibronectin/tenascin-C against fibronectin, 51 h", "setting": "[1]", "result": 24, "unit": "% more cells"}, {"measurement": "MDA-MB435 cell number on fibronectin/tenascin-C against fibronectin, 75 h", "setting": "[1]", "result": 33, "unit": "% more cells"}, {"measurement": "T98G cells (PDGF-BB) attached on FN/TN substratum, 20 h (% of cells attached on fibronectin)", "setting": "[1]", "result": 50.4}, {"measurement": "T98G cells attached on FN/TN substratum, 1 h (% of cells attached on fibronectin)", "setting": "[1]", "result": 31.9}, {"measurement": "T98G cells partially spread on mixed fibronectin/tenascin-C substratum after 20 h", "setting": "[1]", "result": 45, "unit": "%"}, {"measurement": "DNA replication (3H-thymidine incorporation) of CHO-B2 cells on FN/TN", "setting": "[1]; [3]", "result": 2.6}, {"measurement": "DNA replication (3H-thymidine incorporation) of CHO-B2α27 cells on FN/TN", "setting": "[1]; [3]", "result": 2.5}, {"measurement": "DNA replication (3H-thymidine incorporation) of CHO-K1 cells on FN/TN", "setting": "[1]; [3]", "result": 2.3}, {"measurement": "DNA replication (3H-thymidine incorporation) of MDA MB 435 cells on FN/TN", "setting": "[1]; [3]", "result": 1.8}, {"measurement": "DNA replication (3H-thymidine incorporation) of T98G cells on FN/TN", "setting": "[1]; [3]", "result": 3}]}
{"molecule": "Recombinant 13th fibronectin type III repeat (FNIII13) (other, Obtained as in Bloom et al 1999; also called GST-tagged FNIII13; not shown: GST tag and His tag (pulled down with glutathione Sepharose, detected with anti-GST and anti-His, isolated on Ni-NTA)) NVSPPRRARVTDATETTITISWRTKTETITGFQVDAVPANGQTPIQRTIKPDVRSYTITGLQPGTDYKIYLYTLNDNARSSPVVIDAST", "values": [{"measurement": "binding result", "setting": "[2]", "result": "no binding"}]}
